From PMC7049728, “The full-length structure of Thermus scotoductus OLD defines the ATP hydrolysis properties and catalytic mechanism of Class 1 OLD family nucleases” (Nucleic Acids Research, 2020)

Tests used:
[1] = substrate: Nc1ncnc2c1ncn2[C@@H]1O[C@H](COP(=O)(O)OP(=O)(O)OP(=O)(O)O)[C@@H](O)[C@H]1O; assay: Malachite green phosphate release ATPase assay; format: biochemical, Thermus scotoductus; conditions: 65°C, 20 mM Tris-HCl pH 8, 50 mM NaCl, 5 mM MgCl2, no DNA (basal)
[2] = target: the molecule itself; assay: SEC-MALS; 4 mg/ml loaded on Superdex 200 10/300 Increase; 20 mM HEPES pH 7.5, 150 mM KCl, 5 mM MgCl2, 1 mM DTT; 0.7 ml/min; Ts^FL also in different nucleotide states

Protein | Km [1] [µM] | kcat [1] [s⁻¹] | stoichiometry N [2]
Ts OLD (Ts^FL) (Thermus scotoductus SA-01) (protein, full-length, residues 1-525, C-terminal 6xHis tag (pET21b), codon-optimized, expressed in E. coli BL21(DE3); homodimer) MLKRLQVKNFRCLEDIDLPLGPLTAIVGPNGAGKTTILRAIDLVLGDVWPSLRSFRIPQDFINFDTTRAIEITVHFDPPYTQGSFNITAFRLTCKGEDADFHVDLEPLDEGGNVPRYPSGNPLRVGTDMRNHARVLFLDHRRNLAQHLPSIRGSILGRLLQPVRREFKLQDNFKQVYEQAMDLLRTEQVKQIEKTIAETAKQMLGFLGKDAMKSMEIGFGFADPANPFNSLRLQYRESDLTLPGDELGLGIQSAIVVGIFEAFRQLGEKIGTVIIEEPEMYLHPQAQRYFYRLLCEMADKDQCQIIYSTHSPIFADVNRFEALRLVRKDRDDRVVVSYVREEDKSALDNVRNRFKLGGRFDTARNEVLFAKRALLVEGYGDRVAALQLFNQLEVDPDAECIAVVDCGGKAGIELIVGVCKALDIPFVVVHDEDVWPIDERADEETRRKQEQENKAEQEKNQRIQACAGAERVFVVQPSLEAALGIGRNASDKPYRIAEILKTVDVGQPPDALRPFVEAIRQVTRP | 180 ± 26 | 0.00733 ± 0.005 | 
Thermus scotoductus OLD N-terminal region (residues 1-369) (domain or fragment, UniProt E8PLM2 1-369, looked up, Thermus scotoductus OLD, UniProt E8PLM2, N-terminal region encompassing the ATPase domain, residues 1-369; in pET21b; also called Ts^NTR; NTR; source: E. coli BL21(DE3), purified (65°C heat step, nickel column, HiTrap Q, SEC)) MLKRLQVKNFRCLEDIDLPLGPLTAIVGPNGAGKTTILRAIDLVLGDVWPSLRSFRIPQDFINFDTTRAIEITVHFDPPYTQGSFNITAFRLTCKGEDADFHVDLEPLDEGGNVPRYPSGNPLRVGTDMRNHARVLFLDHRRNLAQHLPSIRGSILGRLLQPVRREFKLQDNFKQVYEQAMDLLRTEQVKQIEKTIAETAKQMLGFLGKDAMKSMEIGFGFADPANPFNSLRLQYRESDLTLPGDELGLGIQSAIVVGIFEAFRQLGEKIGTVIIEEPEMYLHPQAQRYFYRLLCEMADKDQCQIIYSTHSPIFADVNRFEALRLVRKDRDDRVVVSYVREEDKSALDNVRNRFKLGGRFDTARNEVLF |  |  | 2
full-length Thermus scotoductus OLD (enzyme, UniProt E8PLM2 1-528, looked up, Thermus scotoductus OLD (Class 1 OLD family nuclease), UniProt E8PLM2, full-length, residues 1-525; codon-optimised synthetic gene in pET21b; Dimer by SEC-MALS and by crystal symmetry; The crystal model holds residues 1-142, 149-237 and 245-525; also called Ts^FL; Ts OLD; source: E. coli BL21(DE3), purified (65°C heat step, nickel column, HiTrap Q, SEC)) MLKRLQVKNFRCLEDIDLPLGPLTAIVGPNGAGKTTILRAIDLVLGDVWPSLRSFRIPQDFINFDTTRAIEITVHFDPPYTQGSFNITAFRLTCKGEDADFHVDLEPLDEGGNVPRYPSGNPLRVGTDMRNHARVLFLDHRRNLAQHLPSIRGSILGRLLQPVRREFKLQDNFKQVYEQAMDLLRTEQVKQIEKTIAETAKQMLGFLGKDAMKSMEIGFGFADPANPFNSLRLQYRESDLTLPGDELGLGIQSAIVVGIFEAFRQLGEKIGTVIIEEPEMYLHPQAQRYFYRLLCEMADKDQCQIIYSTHSPIFADVNRFEALRLVRKDRDDRVVVSYVREEDKSALDNVRNRFKLGGRFDTARNEVLFAKRALLVEGYGDRVAALQLFNQLEVDPDAECIAVVDCGGKAGIELIVGVCKALDIPFVVVHDEDVWPIDERADEETRRKQEQENKAEQEKNQRIQACAGAERVFVVQPSLEAALGIGRNASDKPYRIAEILKTVDVGQPPDALRPFVEAIRQVTRPMEE |  |  | 2
